Patent US20210275695A1 (CASE WESTERN RESERVE UNIVERSITY, published 2021)
Bridges are numbered along the chain shown (N, C = ends). Where no end group is shown, it is not given here. Side-chain parts run from the residue outwards. maleimide = maleimide group that reacts with the cysteine thiol to conjugate the peptide to the carrier (horseradish peroxidase); Gd(HP-DO3A) (azide, via triazole) = azido-Gd(HP-DO3A) gadolinium chelate, click-linked through a triazole; sulfo‑Cy5 = sulfo-cyanine 5 fluorescent label; HRP = horseradish peroxidase; PEG3 = NCCOCCOCCOCCC(=O)O

Experiments:
[1] = molecular target: T1, EDB fragment (extradomain B of fibronectin), expressed in E. coli with an N-terminal 10xHis tag (UniProt P02751 1266-1356); assay: SPR (Biacore T100), EDB protein immobilised on a CM5 chip, Scatchard plot
T1 construct: domain: EDB; also called EDB protein; purified EDB; not shown: N-terminal 10xHis tag from the pQE-T7-1 vector
T1 sequence (P02751 1266-1356): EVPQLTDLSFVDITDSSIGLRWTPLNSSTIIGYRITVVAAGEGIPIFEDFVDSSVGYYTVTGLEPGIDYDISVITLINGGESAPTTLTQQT
Protocol: The ZD2 peptide sequence, TVRTSAD (SEQ ID NO: 1), was synthesized in solid phase using Fmoc chemistry. A short spacer, Fmoc-9-amino-4,7-dioxanonanoic acid (Fmoc-NH-PEG₂-CH₂CH₂COOH), and 5-hexynoic acid, were also sequentially conjugated in solid phase followed by trifluoroacetic acid (TFA) treatment, which yielded ZD2-PEG-propargyl. Azido-Gd(HP-DO3A) was synthesized as reported previously. Click chemistry reaction between ZD2-PEG-propargyl (1 Eq) and azido-Gd(HP-DO3A) (1.1 Eq) was performed in a 2:1 mixture of t-butanol and water under nitrogen following addition of [Cu(MeCN)₄]PF₆ (0.02 Eq) and TBTA (Tris[(1-benzyl-1H-1,2,3-triazol-4-yl)methyl]amine, 0.02 Eq). The final product, named ZD2-Gd(HP-DO3A), was purified by high performance liquid chromatography (HPLC) on an Agilent 1100 HPLC system equipped with a semi-preparative C18 column. […] The Gd(III) content was measured by inductively coupled plasma optical emission spectroscopy (ICP-OES Optima 3100XL, Perkin-Elmer, Norwalk, Conn.). […] Sensorgrams generated from the binding between contrast agents and EDB were recorded with Biacore T100 (GE healthcare, Waukesha, Wis.), and analyzed using Scatchard plot. Affinity was calculated by fitting data into a linear line, with the slope of the line representing −1/Kd.

[2] = molecular target: T2, EDA (extradomain A of fibronectin) (UniProt P02751 1722-1811, limits assumed); assay: ELISA, HRP-conjugated peptide
T2 construct: domain: EDA
T2 sequence (P02751 1722-1811 limits assumed): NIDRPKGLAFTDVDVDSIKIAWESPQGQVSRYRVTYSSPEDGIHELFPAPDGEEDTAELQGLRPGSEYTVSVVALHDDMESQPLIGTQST

[3] = molecular target: T1, EDB fragment (extradomain B of …); assay: ELISA, HRP-conjugated peptide on EDB protein
[4] = molecular target: T1, EDB fragment (extradomain B of …); assay: phage display, four rounds of panning on immobilised purified EDB fragment
Protocol: The Ph.D C7C library (New England Biolabs, Beverly, Mass., USA) was used for screen EDB specific nonapeptides. Candidate peptides were selected by carrying out panning procedures for 4 rounds. In each round, purified EDB fragment (100 μg/ml) was immobilized on non-treated 96-well plates (Corning Costar, Tewksbury, Mass., USA) with overnight coating at 4° C. 0.5% BSA was used to block non-specific binding (1 hr, room temperature) followed by incubating with phages for 1 hr at room temperature. Extensive washing with PBST (0.1%, 0.3%, 0.5% […], respectively, for round 1-3) was used to remove non-binding phages before eluting bound phages by 0.1M Glycine-HC (pH 2.2) and neutralizing with Tris-HCl (pH 9.1). Eluted phages are tittered and amplified with E. coli (ER2758) according to the user's manual. Amplified phages in medium were purified by ultrafiltration and PEG/NaCl precipitation. At the end of round 4, properly diluted phages were cultured on LB/IPTG/Xgal plates and DNA from 29 randomly picked blue plaques were used for sequencing with supplied primers (New England Biolabs). Peptide sequences were resulted from translating of corresponding DNA sequences.
The Ph.D C7C library (New England Biolabs, Beverly, Mass.) was used to screen for EDB-specific cyclic nonapeptides. Candidate peptides were selected by panning for four rounds. […]

[5] = molecular target: extradomain-B fibronectin (EDB-FN), human, as secreted or deposited by human cancer cells and in human tumour tissue (human) (UniProt P02751); assay: histogram of Cy5 pixel intensities of ZD2-Cy5 staining (5 µM) of a human prostate tumor section, GS=9
extradomain-B fibronectin (EDB-FN), human, as secreted or deposited by human cancer cells and in human tumour tissue (human), sequence (P02751 32-2477): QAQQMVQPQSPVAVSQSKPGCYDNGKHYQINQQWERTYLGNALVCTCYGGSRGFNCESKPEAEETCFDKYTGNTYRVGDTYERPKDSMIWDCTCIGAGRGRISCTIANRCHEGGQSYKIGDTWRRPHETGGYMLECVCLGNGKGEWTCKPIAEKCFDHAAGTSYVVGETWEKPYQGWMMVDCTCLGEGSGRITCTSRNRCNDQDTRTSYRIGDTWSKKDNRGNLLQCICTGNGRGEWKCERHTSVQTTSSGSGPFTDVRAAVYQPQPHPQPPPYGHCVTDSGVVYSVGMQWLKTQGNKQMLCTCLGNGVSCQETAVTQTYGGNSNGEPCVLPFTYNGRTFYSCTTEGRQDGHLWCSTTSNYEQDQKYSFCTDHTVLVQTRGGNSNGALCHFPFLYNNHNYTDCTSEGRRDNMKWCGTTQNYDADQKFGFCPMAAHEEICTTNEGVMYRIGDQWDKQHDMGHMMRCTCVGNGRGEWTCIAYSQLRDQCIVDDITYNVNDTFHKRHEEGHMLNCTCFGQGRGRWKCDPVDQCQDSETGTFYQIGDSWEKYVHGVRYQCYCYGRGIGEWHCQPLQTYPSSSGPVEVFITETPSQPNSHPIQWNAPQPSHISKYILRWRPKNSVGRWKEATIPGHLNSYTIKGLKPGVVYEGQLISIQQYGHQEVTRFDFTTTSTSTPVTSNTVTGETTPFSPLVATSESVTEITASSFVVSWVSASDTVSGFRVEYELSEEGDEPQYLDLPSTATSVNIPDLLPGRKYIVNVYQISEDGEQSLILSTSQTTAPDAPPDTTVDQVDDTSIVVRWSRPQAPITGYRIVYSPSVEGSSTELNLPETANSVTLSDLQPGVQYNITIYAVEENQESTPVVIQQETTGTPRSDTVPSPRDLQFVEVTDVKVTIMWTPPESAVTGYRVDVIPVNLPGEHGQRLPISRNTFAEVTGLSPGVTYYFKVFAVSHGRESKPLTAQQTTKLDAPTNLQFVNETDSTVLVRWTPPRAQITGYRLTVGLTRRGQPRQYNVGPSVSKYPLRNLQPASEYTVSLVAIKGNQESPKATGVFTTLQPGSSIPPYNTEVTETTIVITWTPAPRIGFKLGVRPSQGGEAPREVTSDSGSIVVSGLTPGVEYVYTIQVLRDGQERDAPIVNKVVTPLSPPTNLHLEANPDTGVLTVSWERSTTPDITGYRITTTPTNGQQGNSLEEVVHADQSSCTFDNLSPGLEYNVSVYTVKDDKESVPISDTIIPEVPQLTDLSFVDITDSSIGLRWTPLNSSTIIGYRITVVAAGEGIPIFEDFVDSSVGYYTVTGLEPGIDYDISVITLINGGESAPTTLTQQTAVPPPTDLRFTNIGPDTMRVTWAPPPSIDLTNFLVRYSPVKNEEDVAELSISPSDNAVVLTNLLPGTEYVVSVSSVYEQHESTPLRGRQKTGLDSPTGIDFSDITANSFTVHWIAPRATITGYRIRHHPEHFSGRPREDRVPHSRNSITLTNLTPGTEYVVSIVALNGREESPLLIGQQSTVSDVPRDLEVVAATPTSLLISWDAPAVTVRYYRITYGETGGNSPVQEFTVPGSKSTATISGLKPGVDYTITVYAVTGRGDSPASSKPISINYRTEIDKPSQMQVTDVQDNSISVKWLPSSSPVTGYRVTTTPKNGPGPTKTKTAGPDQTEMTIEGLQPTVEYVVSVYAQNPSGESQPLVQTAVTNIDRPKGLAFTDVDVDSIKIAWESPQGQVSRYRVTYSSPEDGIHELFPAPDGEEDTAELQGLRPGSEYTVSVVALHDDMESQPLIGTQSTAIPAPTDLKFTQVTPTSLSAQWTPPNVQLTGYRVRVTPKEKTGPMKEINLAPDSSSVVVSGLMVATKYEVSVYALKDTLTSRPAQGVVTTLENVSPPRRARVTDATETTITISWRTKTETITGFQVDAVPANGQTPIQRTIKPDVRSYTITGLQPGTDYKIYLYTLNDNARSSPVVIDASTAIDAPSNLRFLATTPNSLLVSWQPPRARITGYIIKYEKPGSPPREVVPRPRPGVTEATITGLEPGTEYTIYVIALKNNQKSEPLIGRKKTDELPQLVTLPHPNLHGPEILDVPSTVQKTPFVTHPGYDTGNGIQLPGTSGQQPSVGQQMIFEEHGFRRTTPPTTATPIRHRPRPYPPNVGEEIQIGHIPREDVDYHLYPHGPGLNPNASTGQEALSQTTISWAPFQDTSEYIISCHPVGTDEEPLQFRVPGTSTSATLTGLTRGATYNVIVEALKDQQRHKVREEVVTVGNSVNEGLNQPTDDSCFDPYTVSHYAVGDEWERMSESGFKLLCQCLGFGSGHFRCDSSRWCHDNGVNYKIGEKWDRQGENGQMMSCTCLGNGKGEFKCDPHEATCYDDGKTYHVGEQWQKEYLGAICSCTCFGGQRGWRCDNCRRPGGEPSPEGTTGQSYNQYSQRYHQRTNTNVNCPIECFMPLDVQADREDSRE

[6] = molecular target: extradomain-B fibronectin (EDB-FN), human, as secreted or deposited by human cancer cells and in human tumour tissue (human) (UniProt P02751); assay: histogram of Cy5 pixel intensities of ZD2-Cy5 staining (5 µM) of a human prostate tumor section, GS=7
[7] = molecular target: extradomain-B fibronectin (EDB-FN), human, as secreted or deposited by human cancer cells and in human tumour tissue (human) (UniProt P02751); assay: histogram of Cy5 pixel intensities of ZD2-Cy5 staining (5 µM) of a human prostate BPH section, tissue with low EDB-FN

B1: ZD2-Gd(HP-DO3A) (linear ZD2 peptide TVRTSAD joined through PEG and a triazole to Gd(HP-DO3A)) (peptide)
peptide: {Gd(HP-DO3A) (azide, via triazole)-5‑hexynoic acid-9‑amino‑4,7‑dioxanonanoic acid}-TVRTSAD
modifications: also: Gd complex
notes: also called ZD2-Gd(DO3A)
[1]
  Kd: 1700 nM

B2: l-ZD2-HRP (linear ZD2 with C-terminal cysteine, NH2-TVRTSADC-COOH, conjugated to horseradish peroxidase) (peptide)
peptide: H-TVRTSADC([maleimide-HRP])-OH
[2]
  binding result: no binding

B3: CERAK-HRP (peptide)
peptide: CERAK
modifications: also: conjugated to HRP, 'similarly' to l-ZD2-HRP
notes: Control peptide
[3]
  binding result: no binding

B4: cyclic ZD2 peptide (CTVRTSADC) as selected by phage display (peptide)
peptide: CTVRTSADC
modifications: disulfide 1-9 (inferred); not fully specified
notes: also called cyclic nonapeptide ZD2
[4]
  binding result: binds

B5: ZD2-Cy5 (cyclic ZD2 peptide … labelled with Cy5 through a short PEG linker) (peptide)
peptide: {sulfo‑Cy5-PEG3}-CTVRTSADC-OH
modifications: disulfide 1-9
[5]
  percent pixel counts of Cy5 pixel value 50 to 255: 72.2%
[6]
  percent pixel counts of Cy5 pixel value 50 to 255: 40%
[7]
  percent pixel counts of Cy5 pixel value 50 to 255: 2.1%
